From paper PMC5001605 (Nucleic Acids Research, 2016) come the findings set out here.

First the molecules themselves.
B1: Pyrococcus furiosus Pcc1 (pfuPcc1), full-length (natural protein)
chain: MKAKRVQAKIEIEFPSEDVAKVVYEAVLYEHLSVPYRRSEIDFKLEGKKIILDIKATDSSALRGTVNSYLRWIKAAIDVIEV
B3: Methanococcus jannaschii Kae1 (mjKae1), amino acids 1-328 (domain or fragment)
chain: MICLGLEGTAEKTGVGIVTSDGEVLFNKTIMYKPPKQGINPREAADHHAETFPKLIKEAFEVVDKNEIDLIAFSQGPGLGPSLRVTATVARTLSLTLKKPIIGVNHCIAHIEIGKLTTEAEDPLTLYVSGGNTQVIAYVSKKYRVFGETLDIAVGNCLDQFARYVNLPHPGGPYIEELARKGKKLVDLPYTVKGMDIAFSGLLTAAMRAYDAGERLEDICYSLQEYAFSMLTEITERALAHTNKGEVMLVGGVAANNRLREMLKAMCEGQNVDFYVPPKEFCGDNGAMIAWLGLLMHKNGRWMSLDETKIIPNYRTDMVEVNWIKEIK

For assay [1], the target named is B3. Put plainly: SEC-MALS. Background: SEC sorts molecules by how far they enter the pores of the column.
Assay [2] concerns the target B1. Put plainly: SEC-MALS.
Assay [3] deals with B1. In words: AUC.
Assay [4] concerns the target B1. In words: SEC-MALS. The source holds these as a separate data set.

Regarding B1, the binding result in assay [1] is listed as “binds”.

B2: Pyrococcus furiosus Kae1 (pfuKae1) (natural protein)
chain: MIALGIEGTAHTLGIGIVTENKVLANVFDTLKTEKGGIHPKEAAEHHAKLLKPLLRKALEEAGVSMEDIDVIAFSQGPGLGPALRVVATAARALAIKYNKPIVGVNHCIAHVEITKMFGVKDPVGLYVSGGNTQVLALEGGRYRVFGETLDIGIGNALDVFARELGLGFPGGPKIEKLALKGEKYIELPYAVKGMDLSFSGLLTEAIRKYKSGKYRVEDLAYSFQETAFAALVEVTERALAHTEKEEVVLVGGVAANNRLREMLRIMAEDRGVKFFVPPYDLCRDNGAMIAYTGLRMYKAGIKFKLEETIVKQKFRTDEVEVVW
As for B2, the “stoichiometry N” value in assay [2] was 1 Kae1 per Pcc1 (2:2).
B3: the “stoichiometry N” value in assay [3] is ~1 Kae1 per Pcc1 (2:2); in assay [4] it was 0.5 Kae1 per Pcc1 (1:2); in assay [2], 1 Kae1 per Pcc1 (2:2).

One may read the stoichiometry N as a count of units in the complex or per binding partner.
